Results taken from the RNAGym collection of RNA variant scans (doi:10.7554/elife.90254).

B1: LINE1-full (parent)
chain: UACGUAGGUGGUUUUCCCCUGAUAGUGCUAAGGGGGCCUGGAAGUUUGGACUGGGCAGAGCUCAACACAGCGUGGCAAAGUGGCUGUGGCUAGACUGCCUCUCUGGAUUCCUCGUCACUCAGCAGGGCAUCUCUGAGAGAAAUGCC

Variants of: B1
Assay: self-cleavage, relative activity (ratio to wild type); higher = more cleavage; in vitro, sequencing; the parent is a self-cleaving ribozyme
UACGUAGGUGGUUUUCCCCUGAUAGUGCUAAGGGGGCCUGGAAGUUUGGACUGGGCAGAGCUCAACACAGCGUGGCAAAGUGGGUGUGGCUAGACUGCCCCUCUGGAUUCCUCGUCACUCAGCAGGGCAUCUCUGAGAGAAAUGCC [C84G U100C] gave a self-cleavage of 0.07. UACGUAGGUGGUUUUCCCCUGAUAGUGCUAAGGGGGCCUGGAAGUUUGGACUGGGCAGAGCUCAACACAGCGUGGCAAAGUGGUUGUGGCUAGACUGCCUCUCUGGAUUCCUCGUCACUCAGCAGGGCAUCUCUGAGAGAAAUGCC [C84U] gave a self-cleavage of 0.14. Work on UACGUAGGUGGUUUUCCCCUGAUAGUGCUAAGGGGGCCUGGAAGUUUGGACUGGGCAGAGCUCAACACAGCGUGGCAAAGUGGUUGUGGCUAGGCUGCCUCUCUGGAUUCCUCGUCACUCAGCAGGGCAUCUCUGAGAGAAAUGCC [C84U A94G] yielded a self-cleavage of 0.04. UACGUAGGUGGUUUUCCCCUGAUAGUGCUAAGGGGGCCUGGAAGUUUGGACUGGGCAGAGCUCAACACAGCGUGGCAAAGUGGUUGUGGCUAGACUGCCUCUCUGGAUUCCUCGUCACUCGGCAGGGCAUCUCUGAGAGAAAUGCC [C84U A121G] gave a self-cleavage of 0.2. With UACGUAGGUGGUUUUCCCCUGAUAGUGCUAAGGGGGCCUGGAAGUUUGGACUGGGCAGAGCUCAACACAGCGUGGCAAAGUGGUUGUGGCUAGACUGCCUCUCUGGAUUCCUCGUCACUCAGCGGGGCAUCUCUGAGAGAAAUGCC [C84U A124G] the self-cleavage was 0.11. In the case of UACGUAGGUGGUUUUCCCCUGAUAGUGCUAAGGGGGCCUGGAAGUUUGGACUGGGCAGAGCUCAACACAGCGUGGCAAAGUGGUUGUGGCUAGACUGCCUCUCUGGAUUCCUCGUCACUCAGCAGGGCGUCUCUGAGAGAAAUGCC [C84U A129G], the self-cleavage is reported as 0.18. Variant UACGUAGGUGGUUUUCCCCUGAUAGUGCUAAGGGGGCCUGGAAGUUUGGACUGGGCAGAGCUCAACACAGCGUGGCAAAGUGGUUGUGGCUAGACUGCCUCUCUGGAUUCCUCGUCACUCAGCAGGGCAUCUCUGUGAGAAAUGCC [C84U A136U] has a self-cleavage of 0.13. For UACGUAGGUGGUUUUCCCCUGAUAGUGCUAAGGGGGCCUGGAAGUUUGGACUGGGCAGAGCUCAACACAGCGUGGCAAAGUGGUUGUGGCUAGACUGCCUCUCUGGAUUCCUCGUCACUCAGCAGGGCAUCUCUGAGGGAAAUGCC [C84U A138G], the self-cleavage was 0.13. Variant UACGUAGGUGGUUUUCCCCUGAUAGUGCUAAGGGGGCCUGGAAGUUUGGACUGGGCAGAGCUCAACACAGCGUGGCAAAGUGGUUGUGACUAGACUGCCUCUCUGGAUUCCUCGUCACUCAGCAGGGCAUCUCUGAGAGAAAUGCC [C84U G89A] has a self-cleavage of 0.04. With UACGUAGGUGGUUUUCCCCUGAUAGUGCUAAGGGGGCCUGGAAGUUUGGACUGGGCAGAGCUCAACACAGCGUGGCAAAGUGGUUGCGGCUAGACUGCCUCUCUGGAUUCCUCGUCACUCAGCAGGGCAUCUCUGAGAGAAAUGCC [C84U U87C] the self-cleavage was 0.04. UACGUAGGUGGUUUUCCCCUGAUAGUGCUAAGGGGGCCUGGAAGUUUGGACUGGGCAGAGCUCAACACAGCGUGGCAAAGUGGUUGUGGCUAGACUGCCCCUCUGGAUUCCUCGUCACUCAGCAGGGCAUCUCUGAGAGAAAUGCC [C84U U100C] showed a self-cleavage of 0.21. In the case of UACGUAGGUGGUUUUCCCCUGAUAGUGCUAAGGGGGCCUGGAAGUUUGGACUGGGCAGAGCUCAACACAGCGUGGCAAAGUGGUUGUGGCUAGACUGCCUCUCUGGAUUCCACGUCACUCAGCAGGGCAUCUCUGAGAGAAAUGCC [C84U U112A], the self-cleavage is reported as 0.11. UACGUAGGUGGUUUUCCCCUGAUAGUGCUAAGGGGGCCUGGAAGUUUGGACUGGGCAGAGCUCAACACAGCGUGGCAAAGUGGUUGUGGCUAGACUGCCUCUCUGGAUUCCUCGUCACUCAGCAGGGCAUCCCUGAGAGAAAUGCC [C84U U132C] showed a self-cleavage of 0.14. In the case of UACGUAGGUGGUUUUCCCCUGAUAGUGCUAAGGGGGCCUGGAAGUUUGGACUGGGCAGAGCUCAACACAGCGUGGCAAAGUGGUUGUGGCUAGACUGCCUCUCUGGAUUCCUCGUCACUCAGCAGGGCAUCUCCGAGAGAAAUGCC [C84U U134C], the self-cleavage is reported as 0.19. With UACGUAGGUGGUUUUCCCCUGAUAGUGCUAAGGGGGCCUGGAAGUUUGGACUGGGCAGAGCUCAACACAGCGUGGCAAAGUGGUUGUGGCUAGACUGCCUCUCUGGAUUCCUCGUCACUCAGCAGGGCAUCUCUGAGAGAAACGCC [C84U U143C] the self-cleavage was 0.1. UACGUAGGUGGUUUUCCCCUGAUAGUGCUAAGGGGGCCUGGAAGUUUGGACUGGGCAGAGCUCAACACAGCGUGGCAAAGUGGCAGUGGCUAGUCUGCCUCUCUGGAUUCCUCGUCACUCAGCAGGGCAUCUCUGAGAGAAAUGCC [U85A A94U] showed a self-cleavage of 0.07. Variant UACGUAGGUGGUUUUCCCCUGAUAGUGCUAAGGGGGCCUGGAAGUUUGGACUGGGCAGAGCUCAACACAGCGUGGCAAAGUGGCAGUGGCUAGACUGCCUCUCUGGUUUCCUCGUCACUCAGCAGGGCAUCUCUGAGAGAAAUGCC [U85A A107U] has a self-cleavage of 0.08. UACGUAGGUGGUUUUCCCCUGAUAGUGCUAAGGGGGCCUGGAAGUUUGGACUGGGCAGAGCUCAACACAGCGUGGCAAAGUGGCAGUGGCUAGACUGCCUCUCUGGAUUCCUCGUCACUCUGCAGGGCAUCUCUGAGAGAAAUGCC [U85A A121U] gave a self-cleavage of 0.07. With UACGUAGGUGGUUUUCCCCUGAUAGUGCUAAGGGGGCCUGGAAGUUUGGACUGGGCAGAGCUCAACACAGCGUGGCAAAGUGGCAGUGGCUAGACUGCCUCUCUGGAUUCCUCGUCACUCAGCCGGGCAUCUCUGAGAGAAAUGCC [U85A A124C] the self-cleavage was 0.08. UACGUAGGUGGUUUUCCCCUGAUAGUGCUAAGGGGGCCUGGAAGUUUGGACUGGGCAGAGCUCAACACAGCGUGGCAAAGUGGCAGUGGCUAGACUGCCUCUCUGGAUUCCUCGUCACUCAGCGGGGCAUCUCUGAGAGAAAUGCC [U85A A124G] showed a self-cleavage of 0.04.
